From patent US20140080161A1, “PHOSPHATASE COUPLED KINASE ASSAY” (RESEARCH AND DIAGNOSTIC SYSTEMS, INC., priority 2010, published 2014)

Experiments:
[1] = Coupling capacity of the phosphatase (ADP completely hydrolyzed); type: biochemical; settings: 0.2 μg phosphatase
Description: Phosphatases useful in embodiments of the invention are preferably able to completely hydrolyze all of the ADP generated in a kinase reaction. The amount of complete hydrolysis which can be performed by a phosphatase under a set of reaction conditions may be characterized as the coupling capacity of the phosphatase. As such, the coupling capacity represents the amount of ADP that can be completely hydrolyzed by a given amount of a phosphatase under specific conditions. Coupling capacity may be determined by performing a series of reactions, combining a set amount of phosphatase with increasing amounts of ADP. The reactions may be performed for various lengths of time, with different coupling capacities as a result. The desired reaction time and amount of phosphatase to be used in kinase reactions can then be selected such that the corresponding coupling capacity is greater than the anticipated amount of ADP produced in the kinase reaction. Coupling capacity can be determined as the maximum amount of ADP that is completely hydrolyzed by a given amount of phosphatase in FIG. 3. […] At this level of ADP production, the amount of phosphatase is therefore adequate. However, as the level of ADP produced increases beyond the capacity for a given amount of phosphatase, hydrolysis may not be complete. At this point, coupling capacity is not adequate for the ADP production during a kinase reaction, and the hydrolysis curve diverges and falls below the phosphate standard curve. […]
In order to provide a measurement of kinase activity, the phosphatase needs to be able to completely hydrolyze all ADP generated by the kinase reaction. In this example, the coupling capacity was determined by performing three series of reactions combining 0.2 μg rhCD39L2 with increasing amounts of ADP (3.125, 6.25, 12.5, 25, 50, and 100 nmols), with each series of reactions allowed to run for various lengths of time 10, 20 or 40 minutes. The reactions were stopped and free phosphate was measured using the Malachite Green assay as described above. […]

[2] = ATP hydrolysis curve with increasing amounts of phosphatase, free phosphate by Malachite Green; type: biochemical; settings: 0.25 μg phosphatase, 100 nmol of 2 mM ATP, 20 minutes
Description: The relative activity of the phosphatase on ADP and ATP can be measured by creating hydrolysis curves for ADP and ATP. For example, such hydrolysis curves may be created by performing a series of reactions separately combining set quantities of ADP or ATP with varying quantities of phosphatase and detecting the free phosphate produced. An example of such curves is described in Example 1 below. The resulting phosphate levels (or OD readings, which directly correspond to the phosphate levels) can be plotted against the amount of phosphatase used. The phosphate level or OD readings can be compared at the same quantity of the phosphatase to determine the relative activity of the phosphatase for ADP as compared to ATP. […]
The kinase reactions were carried out in 50 μL of kinase assay buffer including 25 mM Tris, 150 mM NaCl, 5 mM MgCl2, and 5 mM CaCl2 at pH 7.5 in a 96 well plate at room temperature. […] The color was developed with 30 μL Malachite Reagent B. The plate was read at 620 nm with a multi-well plate reader. […]
In this experiment, the relative activity of rhCD39L2 on ADP and ATP was determined. […] The reactions were stopped after 20 minutes and free phosphate was measured using the Malachite Green assay as described above.
The relative activity of recombinant mouse CD 39L2 (rmCD39L2) on ADP and ATP was determined in a series of reactions similar to Example 1. […]

[3] = enzyme as obtained from R&D Systems; cited from earlier work

coupling capacity ([1]; 10 minute reaction): 10 nmole of ADP
coupling capacity ([1]; 20 minute reaction): 20 nmole of ADP
coupling capacity ([1]; 40 minute reaction): 100 nmole of ADP
phosphate released from ATP [2]: less than 3 nmole
B1: rhCD39L2: recombinant human CD39L2, nucleotide phosphatase preferring ADP over ATP, used for coupling (protein, UniProt O75354 1-484, looked up)
Ectonucleoside triphosphate …: MKKGIRYETSRKTSYIFQQPQHGPWQTRMRKISNHGSLRVAKVAYPLGLCVGVFIYVAYIKWHRATATQAFFSITRAAPGARWGQQAHSPLGTAADGHEVFYGIMFDAGSTGTRVHVFQFTRPPRETPTLTHETFKALKPGLSAYADDVEKSAQGIRELLDVAKQDIPFDFWKATPLVLKATAGLRLLPGEKAQKLLQKVKKVFKASPFLVGDDCVSIMNGTDEGVSAWITINFLTGSLKTPGGSSVGMLDLGGGSTQIAFLPRVEGTLQASPPGYLTALRMFNRTYKLYSYSYLGLGLMSARLAILGGVEGQPAKDGKELVSPCLSPSFKGEWEHAEVTYRVSGQKAAASLHELCAARVSEVLQNRVHRTEEVKHVDFYAFSYYYDLAAGVGLIDAEKGGSLVVGDFEIAAKYVCRTLETQPQSSPFSCMDLTYVSLLLQEFGFPRSKVLKLTRKIDNVETSWALGAIFHYIDSLNRQKSPAS
specific activity [3]: > 20,000 pmol/min/μg
